For 12 molecules, IC50 results are on record in patent publication US7005505 (Genentech, dated 2006).

A value given as a limit tells only on which side of the number the result lay.

The target of test [1] is T1, KDR-IgG (UniProt P35968 20-764).
T1 construct: Construct only cited from Park et al. 1994; also called KDR receptor-IgG chimera; soluble KDR; not shown: IgG part of the chimera (captured by anti-human IgG Fc)
Description: competition with 125I-VEGF165 for KDR-IgG, n=8. The method, then:
(§1) After the supernatant was discarded, the wells were washed three times in washing buffer (0.01% Tween 80 in PBS). The plate was blocked (300 µl/well) for one hr in assay buffer (0.5% BSA, 0.03% Tween 80, 0.01% Thimerosal in PBS). The supernatant was discarded and the wells were washed. […] Aliquots of this solution (100 µl) were added to pre-coated microtiter plates and incubated for 4 hr at ambient temperature with gentle agitation. The supernatant was discarded, the plate washed, and individual microtiter wells were counted by gamma scintigraphy (LKB model 1277).
(§2) In addition to the specific amino acid substitutions, the table indicates the mean residue number for the position of the mutation(s). For a given mutant, this number is the average of the altered positions.

Test [2] addresses T2, FLT-1 IgG (UniProt P17948 27-758).
T2 construct: Construct only cited from Park et al. 1994; also called FLT-IgG; FLT-1 receptor-IgG chimera; not shown: IgG part of the chimera (captured by anti-human IgG Fc)
Nature of the test: competition with 125I-VEGF165 for FLT-1-IgG, with heparin. The method, then:
as §1

Test [3] concerns the target T1, KDR-IgG. Description: competition with 125I-VEGF165 for KDR-IgG, radioligand plate assay, no heparin. The method, then:
as §1, §2

The target in test [4] is T2, FLT-1 IgG. Description: competition with 125I-VEGF165 for FLT-1-IgG, radioligand plate assay, no heparin. How it is done: as §1
The target of test [5] is T2, FLT-1 IgG. Description: competition with 125I-VEGF165 for FLT-1-IgG, radioligand plate assay. How it is done: as §1
In test [6] the target is T2, FLT-1 IgG. The description is as above. How it is done:
as §1
The source holds these as a separate data set.

Test [7] concerns the target T1, KDR-IgG. Nature of the test: competition with 125I-VEGF165 for KDR-IgG, radioligand plate assay. The method, then:
as §1

T2 sequence (P17948 27-758): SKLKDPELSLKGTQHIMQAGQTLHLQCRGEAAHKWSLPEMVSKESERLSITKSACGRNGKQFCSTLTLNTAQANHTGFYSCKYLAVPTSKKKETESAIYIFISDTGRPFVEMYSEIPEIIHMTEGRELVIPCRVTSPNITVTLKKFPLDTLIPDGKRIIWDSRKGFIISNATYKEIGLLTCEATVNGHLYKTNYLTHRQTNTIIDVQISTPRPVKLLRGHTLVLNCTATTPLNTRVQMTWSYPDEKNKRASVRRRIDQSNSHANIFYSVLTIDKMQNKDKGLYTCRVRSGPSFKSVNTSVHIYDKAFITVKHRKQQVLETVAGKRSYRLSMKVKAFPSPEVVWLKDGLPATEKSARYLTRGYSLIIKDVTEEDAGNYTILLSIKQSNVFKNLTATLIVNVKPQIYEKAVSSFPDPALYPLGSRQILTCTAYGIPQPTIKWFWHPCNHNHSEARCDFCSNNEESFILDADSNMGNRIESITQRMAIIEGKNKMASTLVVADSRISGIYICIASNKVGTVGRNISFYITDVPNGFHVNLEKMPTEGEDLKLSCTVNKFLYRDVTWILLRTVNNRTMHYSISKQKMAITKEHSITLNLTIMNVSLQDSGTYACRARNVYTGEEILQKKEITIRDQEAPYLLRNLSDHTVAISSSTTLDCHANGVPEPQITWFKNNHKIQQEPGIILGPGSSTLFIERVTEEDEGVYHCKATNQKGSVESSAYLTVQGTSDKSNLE
T1 sequence (P35968 20-764): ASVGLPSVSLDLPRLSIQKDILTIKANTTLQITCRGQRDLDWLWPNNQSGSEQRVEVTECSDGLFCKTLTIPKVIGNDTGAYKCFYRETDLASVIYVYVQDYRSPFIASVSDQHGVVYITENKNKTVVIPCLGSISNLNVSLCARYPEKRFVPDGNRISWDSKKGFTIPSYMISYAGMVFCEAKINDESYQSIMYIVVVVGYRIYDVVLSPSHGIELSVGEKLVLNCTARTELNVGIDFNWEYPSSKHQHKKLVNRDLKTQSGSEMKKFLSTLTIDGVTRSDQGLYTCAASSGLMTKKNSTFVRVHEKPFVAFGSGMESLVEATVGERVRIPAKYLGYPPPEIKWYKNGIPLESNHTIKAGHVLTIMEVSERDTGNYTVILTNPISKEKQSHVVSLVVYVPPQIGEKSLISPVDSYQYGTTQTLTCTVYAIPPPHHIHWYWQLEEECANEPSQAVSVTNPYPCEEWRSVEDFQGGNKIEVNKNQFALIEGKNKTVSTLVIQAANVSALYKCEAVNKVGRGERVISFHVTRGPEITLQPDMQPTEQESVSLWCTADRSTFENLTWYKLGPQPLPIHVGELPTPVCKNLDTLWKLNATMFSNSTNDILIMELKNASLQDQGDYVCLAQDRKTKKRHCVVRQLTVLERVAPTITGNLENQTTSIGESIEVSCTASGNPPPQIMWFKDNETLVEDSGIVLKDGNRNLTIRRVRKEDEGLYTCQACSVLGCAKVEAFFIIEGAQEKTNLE

B1: wildtype VEGF165 expressed in 293 cells (ligand)
chain: APMAEGGGQNHHEVVKFMDVYQRSYCHPIETLVDIFQEYPDEIEYIFKPSCVPLMRCGGCCNDEGLECVPTEESNITMQIMRIKPHQGQHIGEMSFLQHNKCECRPKKDRARQENPCGPCSERRKHLFVQDPQTCKCSCKNTDSRCKARQLELNERTCRCDKPRR
modifications: N-linked carbohydrate at Asn75
notes: Transiently expressed in 293 cells; tested as conditioned medium
Consider B1, for which the IC50 in the test with KDR-IgG [1] was 0.031 nM; in the test with FLT-1 IgG [2] it was 0.015 nM; with KDR-IgG [3], 0.03 nM; with FLT-1 IgG [4], 0.022 nM.

B2: E64N, L66S VEGF (ligand)
chain: APMAEGGGQNHHEVVKFMDVYQRSYCHPIETLVDIFQEYPDEIEYIFKPSCVPLMRCGGCCNDNGSECVPTEESNITMQIMRIKPHQGQHIGEMSFLQHNKCECRPKKDRARQENPCGPCSERRKHLFVQDPQTCKCSCKNTDSRCKARQLELNERTCRCDKPRR
modifications: putative extra N-linked glycosylation at position 64
notes: Neo-glycosylation mutant from 293 cells, conditioned medium
Consider B2, for which the IC50 in the test with FLT-1 IgG [2] turned out to be 0.65 nM; with FLT-1 IgG [5], 35.6 ng/mL; in the test with FLT-1 IgG [4], 0.98 nM.

B3: R112A, E114A VEGF (ligand)
chain: APMAEGGGQNHHEVVKFMDVYQRSYCHPIETLVDIFQEYPDEIEYIFKPSCVPLMRCGGCCNDEGLECVPTEESNITMQIMRIKPHQGQHIGEMSFLQHNKCECRPKKDRAAQANPCGPCSERRKHLFVQDPQTCKCSCKNTDSRCKARQLELNERTCRCDKPRR
notes: VEGF165 mutant from 293 cells, conditioned medium
On to B3, for which the IC50 with FLT-1 IgG [6] worked out at 0.56 ng/mL; with KDR-IgG [3] it was 0.04 nM; with FLT-1 IgG [4], 0.013 nM.

B4: RIK(82-84)NLS VEGF (ligand)
chain: APMAEGGGQNHHEVVKFMDVYQRSYCHPIETLVDIFQEYPDEIEYIFKPSCVPLMRCGGCCNDEGLECVPTEESNITMQIMNLSPHQGQHIGEMSFLQHNKCECRPKKDRARQENPCGPCSERRKHLFVQDPQTCKCSCKNTDSRCKARQLELNERTCRCDKPRR
modifications: potential N-linked glycosylation site at position 82 (extent of glycosylation not apparent)
notes: Neo-glycosylation mutant from 293 cells, conditioned medium; also called R82N, I83L, K84S
On to B4, for which the IC50 in the test with KDR-IgG [7] was more than 10000 ng/mL; in the test with FLT-1 IgG [5], 1.63 ng/mL; with KDR-IgG [3], more than 100 nM; with FLT-1 IgG [4] it was 0.029 nM.

B5: E42A VEGF (ligand)
chain: APMAEGGGQNHHEVVKFMDVYQRSYCHPIETLVDIFQEYPDAIEYIFKPSCVPLMRCGGCCNDEGLECVPTEESNITMQIMRIKPHQGQHIGEMSFLQHNKCECRPKKDRARQENPCGPCSERRKHLFVQDPQTCKCSCKNTDSRCKARQLELNERTCRCDKPRR
notes: as for B3
With B5, the IC50 with FLT-1 IgG [6] is 0.51 ng/mL; with KDR-IgG [3] it was 0.007 nM; with FLT-1 IgG [4] it was 0.008 nM.

B6: K48A VEGF (ligand)
chain: APMAEGGGQNHHEVVKFMDVYQRSYCHPIETLVDIFQEYPDEIEYIFAPSCVPLMRCGGCCNDEGLECVPTEESNITMQIMRIKPHQGQHIGEMSFLQHNKCECRPKKDRARQENPCGPCSERRKHLFVQDPQTCKCSCKNTDSRCKARQLELNERTCRCDKPRR
notes: as for B3
On to B6, for which the results for the IC50 in the test with FLT-1 IgG [6], with KDR-IgG [3] and in the test with FLT-1 IgG [4] were 1.08 ng/mL, 0.02 nM and 0.026 nM, respectively.

B7: D63A VEGF (ligand)
chain: APMAEGGGQNHHEVVKFMDVYQRSYCHPIETLVDIFQEYPDEIEYIFKPSCVPLMRCGGCCNAEGLECVPTEESNITMQIMRIKPHQGQHIGEMSFLQHNKCECRPKKDRARQENPCGPCSERRKHLFVQDPQTCKCSCKNTDSRCKARQLELNERTCRCDKPRR
notes: as for B3
For B7, the IC50 with FLT-1 IgG [5] came to 1.54 ng/mL; with KDR-IgG [3] it was 0.005 nM; in the test with FLT-1 IgG [4], 0.026 nM.

B8: E64A VEGF (ligand)
chain: APMAEGGGQNHHEVVKFMDVYQRSYCHPIETLVDIFQEYPDEIEYIFKPSCVPLMRCGGCCNDAGLECVPTEESNITMQIMRIKPHQGQHIGEMSFLQHNKCECRPKKDRARQENPCGPCSERRKHLFVQDPQTCKCSCKNTDSRCKARQLELNERTCRCDKPRR
notes: as for B3
With B8, the IC50 with KDR-IgG [7] stood at 8 ng/mL; in the test with FLT-1 IgG [5] it was 0.94 ng/mL; with FLT-1 IgG [4], 0.016 nM.

B9: D109A, R110A VEGF (ligand)
chain: APMAEGGGQNHHEVVKFMDVYQRSYCHPIETLVDIFQEYPDEIEYIFKPSCVPLMRCGGCCNDEGLECVPTEESNITMQIMRIKPHQGQHIGEMSFLQHNKCECRPKKAAARQENPCGPCSERRKHLFVQDPQTCKCSCKNTDSRCKARQLELNERTCRCDKPRR
notes: as for B3
On to B9, for which the IC50 is 1.42 ng/mL in the test with FLT-1 IgG [6], 0.03 nM with KDR-IgG [3] and 0.035 nM with FLT-1 IgG [4].

B10: H86A VEGF (ligand)
chain: APMAEGGGQNHHEVVKFMDVYQRSYCHPIETLVDIFQEYPDEIEYIFKPSCVPLMRCGGCCNDEGLECVPTEESNITMQIMRIKPAQGQHIGEMSFLQHNKCECRPKKDRARQENPCGPCSERRKHLFVQDPQTCKCSCKNTDSRCKARQLELNERTCRCDKPRR
notes: as for B3
With B10, the figures for the IC50 with KDR-IgG [7], with FLT-1 IgG [5] and in the test with FLT-1 IgG [4] were 2 ng/mL, 1.19 ng/mL and 0.015 nM, respectively.

B11: R23A VEGF (ligand)
chain: APMAEGGGQNHHEVVKFMDVYQASYCHPIETLVDIFQEYPDEIEYIFKPSCVPLMRCGGCCNDEGLECVPTEESNITMQIMRIKPHQGQHIGEMSFLQHNKCECRPKKDRARQENPCGPCSERRKHLFVQDPQTCKCSCKNTDSRCKARQLELNERTCRCDKPRR
notes: as for B3
Consider B11, for which the values for the IC50 with KDR-IgG [7], with FLT-1 IgG [6] and with FLT-1 IgG [4] were 2 ng/mL, 1 ng/mL and 0.03 nM, respectively.

B12: E44A VEGF (ligand)
chain: APMAEGGGQNHHEVVKFMDVYQRSYCHPIETLVDIFQEYPDEIAYIFKPSCVPLMRCGGCCNDEGLECVPTEESNITMQIMRIKPHQGQHIGEMSFLQHNKCECRPKKDRARQENPCGPCSERRKHLFVQDPQTCKCSCKNTDSRCKARQLELNERTCRCDKPRR
notes: as for B3
Consider B12, for which the IC50 in the test with FLT-1 IgG [6] turned out to be 0.54 ng/mL; in the test with KDR-IgG [3], 0.004 nM; in the test with FLT-1 IgG [4], 0.009 nM.
